Data taken from article PMC3307221 (Analytical Chemistry, 2012).

Target: protective antigen of anthrax (Bacillus anthracis, strain , UniProt P13423)
Test: SPR

Chain of protective antigen of anthrax (P13423 whole entry, looked up): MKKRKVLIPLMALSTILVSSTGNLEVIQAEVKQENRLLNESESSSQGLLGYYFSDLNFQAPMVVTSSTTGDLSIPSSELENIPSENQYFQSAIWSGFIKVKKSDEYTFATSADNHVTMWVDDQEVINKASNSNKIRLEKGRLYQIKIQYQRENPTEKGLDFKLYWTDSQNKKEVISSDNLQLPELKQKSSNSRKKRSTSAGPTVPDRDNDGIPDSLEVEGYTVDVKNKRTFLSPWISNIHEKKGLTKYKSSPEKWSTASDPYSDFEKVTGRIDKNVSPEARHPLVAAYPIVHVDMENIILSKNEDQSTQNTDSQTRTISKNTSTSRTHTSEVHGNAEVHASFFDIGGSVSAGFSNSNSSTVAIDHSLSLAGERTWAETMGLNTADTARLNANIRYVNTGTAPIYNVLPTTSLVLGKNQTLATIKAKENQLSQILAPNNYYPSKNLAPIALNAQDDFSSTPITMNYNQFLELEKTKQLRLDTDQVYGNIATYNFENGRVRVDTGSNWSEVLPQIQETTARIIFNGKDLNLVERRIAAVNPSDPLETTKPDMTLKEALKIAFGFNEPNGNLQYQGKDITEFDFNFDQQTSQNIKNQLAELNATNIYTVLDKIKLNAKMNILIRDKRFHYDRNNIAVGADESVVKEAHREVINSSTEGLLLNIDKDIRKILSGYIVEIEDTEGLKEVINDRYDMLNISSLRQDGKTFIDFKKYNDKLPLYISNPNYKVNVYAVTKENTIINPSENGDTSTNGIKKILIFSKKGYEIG

B1: M18 scFv (scFv, V domains shown)
VH: EVQLQQSGPELVKPGASVKISCKDSGYAFNSSWMNWVKQRPGQGLEWIGRIYPGDGDSNYNGKFEGKAILTADKSSSTAYMQLSSLTSVDSAVYFCARSGLLRYAMDYWGQGTSVTVSS
VL: DIQMTQTTSSLSASLGDRVTVSCRASQDIRNYLNWYQQKPDGTVKFLIYYTSRLQPGVPSRFSGSGSGTDYSLTINNLEQEDIGTYFCQQGNTPPWTFGGGTKLEIK
- koff: 0.00011 s⁻¹
- kon: 597000 M⁻¹ s⁻¹
